In patent publication US20260250338A1 (Molecular Partners, published 2026):

T1: CD32a expressed on Jurkat-NFAT-CD32a reporter cells (Invivogen jktl-nfat-cd32) (UniProt P12318 34-317, limits assumed)
T1 construct: whole, on cells; also called Jurkat-Lucia NFAT-CD32a Reporter cells; Fc receptor CD32a
T1 sequence (looked up): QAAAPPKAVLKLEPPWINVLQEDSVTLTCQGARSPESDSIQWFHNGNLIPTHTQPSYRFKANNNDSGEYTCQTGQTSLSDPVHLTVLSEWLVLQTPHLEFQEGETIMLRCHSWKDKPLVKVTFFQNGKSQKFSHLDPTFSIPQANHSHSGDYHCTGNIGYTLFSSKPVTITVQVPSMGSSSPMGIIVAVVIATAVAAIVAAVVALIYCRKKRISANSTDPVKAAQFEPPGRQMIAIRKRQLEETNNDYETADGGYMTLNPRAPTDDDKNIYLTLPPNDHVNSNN

B1: Construct No. 21 (SEQ ID NO: 90), CD117 × CD16a, CD117 binder SEQ ID NO: 85 and DARPin #2 (designed binder)
chain: MRGSHHHHHHGSDLGAKLLKAAQSGQDDEVRILLAAGADVNAKDKDGYTPLHLAAREGHLEIVEVLLKAGSDVNAKDYYGETPLHQAAEYGHLEIVEVLLKAGADVNAQDEWGATPADLAAQQGHEDIAEVLQKAAGSPTPTPTTPTPTPTTPTPTPTGSDLGQKLLRAAKKGQDDEVRELLKAGADVNAKDEQGWTPLHIAAWKGHLEIVEVLLKAGADVNAKDVFDWTPLHVAAHFGHLEIVEVLLKAGADVNAQDRAGETPADLAAQAGHEDIAEVLQKAA
B2: Construct No. 3 (SEQ ID NO: 13), 2D (CD16a × HER2), DARPin #2 with C-terminal HER2 binder of SEQ ID NO: 9 (designed binder)
chain: MRGSHHHHHHGSDLGQKLLRAAKKGQDDEVRELLKAGADVNAKDEQGWTPLHIAAWKGHLEIVEVLLKAGADVNAKDVFDWTPLHVAAHFGHLEIVEVLLKAGADVNAQDRAGETPADLAAQAGHEDIAEVLQKAAGSPTPTPTTPTPTPTTPTPTPTGSDLGIKLLFAAAKGQDDEVRELLKAGADVNAKDFQGVTPLHIAAQSGHLEIVEVLLKAGADVNAKDVTGDTPLHLAAQHGHLEIVEVLLKAGADVNAQDERGWTPADLAADWGHEDIAEVLQKAA
notes: Bispecific DARPin; also called Construct 3
B3: Construct No. 20 (SEQ ID NO: 89), CD117 × CD16a, CD117 binder SEQ ID NO: 84 and DARPin #2 (designed binder)
chain: MRGSHHHHHHGSDLGQKLLKAAQYGQDDEVRILLAAGADVNAKDWAGKTPLHVAAEAGHLEIVEVLLKAGADVNAKDKAGETPLHLAAEQGHLEIVEVLLKAGADVNAQDEWGQTPADLAAYYGLEDIAEVLQKAAGSPTPTPTTPTPTPTTPTPTPTGSDLGQKLLRAAKKGQDDEVRELLKAGADVNAKDEQGWTPLHIAAWKGHLEIVEVLLKAGADVNAKDVFDWTPLHVAAHFGHLEIVEVLLKAGADVNAQDRAGETPADLAAQAGHEDIAEVLQKAA
B4: Construct No. 11 (SEQ ID NO: 18), 2D (CD16a × HER2), DARPin #1 with C-terminal HER2 binder of SEQ ID NO: 9 (designed binder)
chain: MRGSHHHHHHGSDLGKKLLQAARAGQLDEVRELLKAGADVNAKDWSGFTPLHIAAVQGHLEIVEVLLKAGADVNAKDHSGWTPLHVAAFSGHLEIVEVLLKAGADVNAKDATGQTPLHLAARTGHLEIVEVLLKAGADVNAQDKSGKTPADLAARAGHQDIAEVLQKAAGSPTPTPTTPTPTPTTPTPTPTGSDLGIKLLFAAAKGQDDEVRELLKAGADVNAKDFQGVTPLHIAAQSGHLEIVEVLLKAGADVNAKDVTGDTPLHLAAQHGHLEIVEVLLKAGADVNAQDERGWTPADLAADWGHEDIAEVLQKAA
B5: Construct No. 5 (SEQ ID NO: 11), 2D (HER2 × CD16a), DARPin #2 with N-terminal HER2 binder of SEQ ID NO: 9 (designed binder)
chain: MRGSHHHHHHGSDLGIKLLFAAAKGQDDEVRELLKAGADVNAKDFQGVTPLHIAAQSGHLEIVEVLLKAGADVNAKDVTGDTPLHLAAQHGHLEIVEVLLKAGADVNAQDERGWTPADLAADWGHEDIAEVLQKAAGSPTPTPTTPTPTPTTPTPTPTGSDLGQKLLRAAKKGQDDEVRELLKAGADVNAKDEQGWTPLHIAAWKGHLEIVEVLLKAGADVNAKDVFDWTPLHVAAHFGHLEIVEVLLKAGADVNAQDRAGETPADLAAQAGHEDIAEVLQKAA
notes: Bispecific DARPin; also called Construct 5
B6: Construct No. 8 (SEQ ID NO: 12), 2D (CD16a × HER2), DARPin #2 with C-terminal HER2 binder of SEQ ID NO: 8 (designed binder)
chain: MRGSHHHHHHGSDLGQKLLRAAKKGQDDEVRELLKAGADVNAKDEQGWTPLHIAAWKGHLEIVEVLLKAGADVNAKDVFDWTPLHVAAHFGHLEIVEVLLKAGADVNAQDRAGETPADLAAQAGHEDIAEVLQKAAGSPTPTPTTPTPTPTTPTPTPTGSDLGKKLLEAARAGQDDEVRELLKAGADVNAKDEYGLTPLYLATAHGHLEIVEVLLKAGADVNAVDAIGFTPLHLAAFIGHLEIAEVLLKAGADVNAQDKFGKTPADIAAGAGNEDIAEVLQKAA
notes: Bispecific DARPin; also called Construct 8
B7: Construct No. 22 (SEQ ID NO: 91), CD117 × CD16a, CD117 binder SEQ ID NO: 86 and DARPin #2 (designed binder)
chain: MRGSHHHHHHGSDLGKKLLQAARAGQLDEVRELLKAGADVNAKDVYGLTPLHLAAREGHLEIVEVLLKAGADVNAKDAYGETPLHLAAEAGHLEIVEVLLKAGADVNAKDEWGETPLNVAARAGHQDIAEVLQKAAGSPTPTPTTPTPTPTTPTPTPTGSDLGQKLLRAAKKGQDDEVRELLKAGADVNAKDEQGWTPLHIAAWKGHLEIVEVLLKAGADVNAKDVFDWTPLHVAAHFGHLEIVEVLLKAGADVNAQDRAGETPADLAAQAGHEDIAEVLQKAA
B8: Construct No. 23 (SEQ ID NO: 92), CD117 × CD16a, CD117 binder SEQ ID NO: 87 and DARPin #2 (designed binder)
chain: MRGSHHHHHHGSDLGKKLLKAASWGQDDEVRILLAAGADVNAKDNSGWTPLHAAAWYGHLEIVEVLLKAGADVNAKDKTGLTPLHKAAHVGHLEIVEVLLKAGADVNAQDEWGATPADLAASTGHEDIAEVLQKAAGSPTPTPTTPTPTPTTPTPTPTGSDLGQKLLRAAKKGQDDEVRELLKAGADVNAKDEQGWTPLHIAAWKGHLEIVEVLLKAGADVNAKDVFDWTPLHVAAHFGHLEIVEVLLKAGADVNAQDRAGETPADLAAQAGHEDIAEVLQKAA
B9: Construct No. 4 (SEQ ID NO: 15), 2D (HER2 × CD16a), DARPin #3 with N-terminal HER2 binder of SEQ ID NO: 9 (designed binder)
chain: MRGSHHHHHHGSDLGIKLLFAAAKGQDDEVRELLKAGADVNAKDFQGVTPLHIAAQSGHLEIVEVLLKAGADVNAKDVTGDTPLHLAAQHGHLEIVEVLLKAGADVNAQDERGWTPADLAADWGHEDIAEVLQKAAGSPTPTPTTPTPTPTTPTPTPTGSDLGKKLLQAARAGQLDEVRELLKAGADVNAKDEQGRTPLHIAAASGHLEIVEVLLKAGADVNAKDWFGITPLHIAAWWGHLEIVEVLLKAGADVNAKDQEGRTPLHIAAAIGHLEIVEVLLKAGADVNAQDKSGKTPADLAARAGHQDIAEVLQKAA
notes: Bispecific DARPin; also called Construct 4
B10: Construct No. 6 (SEQ ID NO: 17), 2D (CD16a × HER2), DARPin #3 with C-terminal HER2 binder of SEQ ID NO: 9 (designed binder)
chain: MRGSHHHHHHGSDLGKKLLQAARAGQLDEVRELLKAGADVNAKDEQGRTPLHIAAASGHLEIVEVLLKAGADVNAKDWFGITPLHIAAWWGHLEIVEVLLKAGADVNAKDQEGRTPLHIAAAIGHLEIVEVLLKAGADVNAQDKSGKTPADLAARAGHQDIAEVLQKAAGSPTPTPTTPTPTPTTPTPTPTGSDLGIKLLFAAAKGQDDEVRELLKAGADVNAKDFQGVTPLHIAAQSGHLEIVEVLLKAGADVNAKDVTGDTPLHLAAQHGHLEIVEVLLKAGADVNAQDERGWTPADLAADWGHEDIAEVLQKAA
notes: Bispecific DARPin; also called Construct 6
B11: Construct No. 9 (SEQ ID NO: 14), 2D (HER2 × CD16a), DARPin #3 with N-terminal HER2 binder of SEQ ID NO: 8 (designed binder)
chain: MRGSHHHHHHGSDLGKKLLEAARAGQDDEVRELLKAGADVNAKDEYGLTPLYLATAHGHLEIVEVLLKAGADVNAVDAIGFTPLHLAAFIGHLEIAEVLLKAGADVNAQDKFGKTPADIAAGAGNEDIAEVLQKAAGSPTPTPTTPTPTPTTPTPTPTGSDLGKKLLQAARAGQLDEVRELLKAGADVNAKDEQGRTPLHIAAASGHLEIVEVLLKAGADVNAKDWFGITPLHIAAWWGHLEIVEVLLKAGADVNAKDQEGRTPLHIAAAIGHLEIVEVLLKAGADVNAQDKSGKTPADLAARAGHQDIAEVLQKAA
B12: Construct No. 10 (SEQ ID NO: 16), 2D (CD16a × HER2), DARPin #3 with C-terminal HER2 binder of SEQ ID NO: 8 (designed binder)
chain: MRGSHHHHHHGSDLGKKLLQAARAGQLDEVRELLKAGADVNAKDEQGRTPLHIAAASGHLEIVEVLLKAGADVNAKDWFGITPLHIAAWWGHLEIVEVLLKAGADVNAKDQEGRTPLHIAAAIGHLEIVEVLLKAGADVNAQDKSGKTPADLAARAGHQDIAEVLQKAAGSPTPTPTTPTPTPTTPTPTPTGSDLGKKLLEAARAGQDDEVRELLKAGADVNAKDEYGLTPLYLATAHGHLEIVEVLLKAGADVNAVDAIGFTPLHLAAFIGHLEIAEVLLKAGADVNAQDKFGKTPADIAAGAGNEDIAEVLQKAA
B13: Construct No. 24 (SEQ ID NO: 93), CD117 × CD16a, CD117 binder SEQ ID NO: 88 and DARPin #2 (designed binder)
chain: MRGSHHHHHHGSDLGHKLLHAAAWGQDDEVRILLAAGADVNAKDQSGWTPLHVAAWYGHLEIVEVLLKAGADVNAKDLKGETPLHLAALVGHLEIVEVLLKAGADVNAQDIAGDTPADLAAIAGHEDIAEVLQKAAGSPTPTPTTPTPTPTTPTPTPTGSDLGQKLLRAAKKGQDDEVRELLKAGADVNAKDEQGWTPLHIAAWKGHLEIVEVLLKAGADVNAKDVFDWTPLHVAAHFGHLEIVEVLLKAGADVNAQDRAGETPADLAAQAGHEDIAEVLQKAA

Legend:
[1] = target: T2, CD16aV allotype of human CD16a expressed on Jurkat-Lucia-NFAT-CD16 Reporter cells (InvivoGen) (human, UniProt P08637 17-254); test: cell-based or functional assay
[2] = target: T2, CD16aV allotype of human CD16a …; test: cell-based or functional assay; remark: listed apart in the source
[3] = target: T1, CD32a expressed on Jurkat-NFAT-CD32a …; test: flow cytometry on Jurkat-NFAT-CD32a cells, 4-fold serial dilutions, detection with anti-DARPin 1.1.1 antibody
Method: Serial dilutions (4-fold) of the constructs were incubated 30 min at 4° C. with 50000 cells in a 96-well plate. Detection antibody (anti-DARPin 1.1.1 Alexa Fluor […]) was subsequently added to the wells (2 μg/ml diluted in FACS buffer) and incubated at 4° C. for 30 min. Cold buffer was added, then cells were spun down prior to supernatant removal. Cells were then fixed with Cell fix buffer (BD) and signal was measured by flow cytometry.

[4] = target: T3, full length human CD16b stably expressed on transduced WT Jurkat cells (human, UniProt O75015 17-200); test: flow cytometry on Jurkat-CD16b cells, 5-fold serial dilutions, detection with Penta-His Alexa Fluor 488
T3 construct: whole, on cells; also called CD16b expressing cells; Jurkat CD16b
Method: Serial dilutions (5-fold) of the constructs were incubated 30 min at 4° C. with 50000 cells in a 96-well plate. […] Cold buffer was added, then cells were spun down prior to supernatant removal. Cells were then fixed with Cell fix buffer (BD) and signal was measured by flow cytometry.

[5] = target: T3, full length human CD16b stably …; test: flow cytometry on Jurkat-CD16b cells, serial dilutions, detection with Penta-His Alexa Fluor 647

T2 sequence (P08637 17-254 F176V): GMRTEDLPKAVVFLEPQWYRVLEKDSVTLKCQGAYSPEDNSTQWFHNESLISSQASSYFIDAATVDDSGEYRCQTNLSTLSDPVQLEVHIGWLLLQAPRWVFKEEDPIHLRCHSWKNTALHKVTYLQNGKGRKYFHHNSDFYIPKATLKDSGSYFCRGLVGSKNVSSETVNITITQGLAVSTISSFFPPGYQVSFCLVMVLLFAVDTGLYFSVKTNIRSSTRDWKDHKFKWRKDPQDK
T3 sequence (O75015 17-200): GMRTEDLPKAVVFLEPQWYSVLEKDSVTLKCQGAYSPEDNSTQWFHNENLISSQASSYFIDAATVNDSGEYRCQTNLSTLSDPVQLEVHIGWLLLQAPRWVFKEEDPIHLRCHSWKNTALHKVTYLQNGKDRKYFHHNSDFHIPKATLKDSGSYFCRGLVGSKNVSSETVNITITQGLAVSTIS

Row | Binder | EC50 (pM), DDCC reporter assay (luminescence), Kasumi-1 target cells, E:T 1:1, 24 h [1] [pM] | Top (RLU), DDCC reporter assay (luminescence), Kasumi-1 target cells [1] [RLU] | EC50 (pM), ADCC reporter assay (luminescence), SKOV3 target cells, E:T 5:1, 5 h [2] [pM] | further results
1 | B1 | 32.3 | 23200 | – | –
2 | B2 | – | – | 0.19 | binding result [3]: no binding (tested: 400 nM); binding result [4]: no binding (tested: 1000 nM)
3 | B3 | 86.2 | 26500 | – | –
4 | B4 | – | – | 4.1 | –
5 | B5 | – | – | 0.39 | binding result [3]: no binding (tested: 400 nM); binding result [5]: no binding (tested: 1000 nM)
6 | B6 | – | – | 0.24 | binding result [3]: no binding (tested: 400 nM)
7 | B7 | 25.2 | 22000 | – | –
8 | B8 | 120 | 7870 | – | –
9 | B9 | – | – | 0.7 | binding result [4]: no binding (tested: 1000 nM)
10 | B10 | – | – | 3.5 | binding result [5]: no binding (tested: 1000 nM)
11 | B11 | – | – | 1.6 | –
12 | B12 | – | – | 24 | –
13 | B13 | 96.1 | 8470 | – | –
